Experimental data as given in paper PMC8266642.

Molecular target: T1, StrepHP1021 (HP1021) (Helicobacter pylori 26695) (UniProt O25665)
T1 sequence: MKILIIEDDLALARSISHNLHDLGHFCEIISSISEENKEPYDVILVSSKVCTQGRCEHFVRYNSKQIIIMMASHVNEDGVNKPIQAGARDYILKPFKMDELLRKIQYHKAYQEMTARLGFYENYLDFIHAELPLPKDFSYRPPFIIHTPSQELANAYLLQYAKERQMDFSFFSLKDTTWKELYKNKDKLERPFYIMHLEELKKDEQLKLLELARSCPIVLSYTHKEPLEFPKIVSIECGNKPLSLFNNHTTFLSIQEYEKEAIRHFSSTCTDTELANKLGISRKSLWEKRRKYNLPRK
Test: EMSA
Details: EMSA: 50 mM Tris-HCl pH 8.0, 100 mM NaCl, 0.2% Triton X-100, 5 nM DNA, 37 C 20 min; 4% PAGE in 0.5x TBE or TB at 20-25 C. SPR: 50 mM Tris-HCl pH 8.0, 100 mM …

Row | Sequence | binding
1 | ATGATATTTATATGATATTTTTGGGTAATTTAAGATGAATATCGGTAGCGTTTTGAATAAATTTGTTACTACTTTTCACTTTATTACGCCAAATTTTCCCTTATTACAAACAACTTTGAAATAAATGATTTCCATTTAAAAATCAGCCTTATACTTCTAATAGGTTGCCTTGAGCAACACTTTAATACAAGGAGTCTAAATGAAAGACGCAAATTCGAAGCTATTCTTACTCC (double strand) [phyuA] | binds
2 | GGAGTAAGAATAGCTTCGAATCTCTATTTTGAAAACCCCTATTTCAGGCTTTTGAGTTTTTTAGGCTCTAGTTTTATCCACCCCTTTGGATTTGATTGGTTAGTCCCAGATAGCTTTTTTTCTTATAGCGTGTTTAGAGTGGATAAATTATCGCTAGGGCTTGTTTTTTTGGCTTGCATTTTTTTGAGCACTAAACCATTGAAAAAATATAG (double strand) [FAM-HP0180 fragment] | binds more weakly
